Measurements taken from the supplement of paper PMC9170038.

Test system: MS2 coat protein
Test: apparent KD of MS2 coat protein; designed switch direction (-1 OFF switch, 1 ON switch): -1; higher = weaker reporter binding
Summary of the method: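 RNA switches sharing common flanks were transcribed by stalled E. coli RNA polymerase on Illumina chips. A doubling series of SNAP-549-labelled MS2 coat protein, from 0.7 or 1.5 nM to 3 µM, was applied in Tris-HCl pH 7.5 buffer with KCl, MgCl2, BSA, DTT, tRNA and Tween-20. Each step lasted 0.8–1.5 h at the bottom of the series and 10–20 min at the top. Normalised cluster fluorescence was curve-fitted, giving apparent KD as the per-design median over clusters.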

[1] = Eterna round: R95, input ligand: FMN 200 uM
[2] = Eterna round: R95, input ligand: microRNA oligo, concentration not stated
[3] = Eterna round: R95, input ligand: none
[4] = input ligand: microRNA oligo, concentration not stated

| Sequence | apparent KD of MS2 coat protein [1] [nM] | apparent KD of MS2 coat protein [2] [nM] | apparent KD of MS2 coat protein [3] [nM] | apparent KD of MS2 coat protein (input ligand: FMN 200 uM) [nM] | apparent KD of MS2 coat protein [4] [nM] | apparent KD of MS2 coat protein (input ligand: none) [nM] |
| --- | --- | --- | --- | --- | --- | --- |
| UGUACUAUGCGAGCUGACUUGCGUAGUGCAGCAAGUGAAACAUGAGGAUCACCCAUGUCCUCAUUUGCUCGUCUUAU [SL-sv3-2.01 JL mod] (puzzle: Sensor v3, turn-off variant 2) | 23.3 | 337 | 22 | – | – | – |
| UGUACUAUGCGAGCUGACUUGCGUAGUGCAGCAGGUGUAACAUGAGGAUCACCCAUGUCCUCAUUUGCUCGUCUUAU [SL-sv3-2.05 JL mod] (puzzle: Sensor v3, turn-off variant 2) | 347 | 297 | 414 | – | – | – |
| UGUACUAUGCGUGCUGACAUGCGUAGUGCAGCAGGUGUAACAUGAGGAUCACCCAUGUCCUCAUUUGCUCGUCUUAA [Mat - Sensor v3 - Turn-off var 2 - D14] (puzzle: Sensor v3, turn-off variant 2) | 207 | 335 | – | – | – | – |
| UGUACUAUGCGUGCUGACAUGCGUAGUGCAGCAGGUGUUACAUGAGGAUCACCCAUGUCCUCAUUUGCUCGUCUUAA [Mat - Sensor v3 - Turn-off var 2 - D17] (puzzle: Sensor v3, turn-off variant 2) | 205 | 219 | 177 | – | – | – |
| UGUAGAGUGGUAGGAUAUCCGUCUGUUUCAGUCGGAGAAGGACCACAGUCACUGGGUCCAUGUUUCAUGGAGACCUGAUCUACU [pwkr exNG1 F6.10] (Eterna round: R96, puzzle: Exclusion NG 1) | – | – | – | 185 | 49 | 195 |
| UGUAGAGUGGUAGGAUAUCCGUCUGUUUCAGUCGGAGAAGGACCACAGUCACUGGGUCCUUAUAUGGGUGACCAUGUAUCUACU [pwkr exNG1 F6.5] (Eterna round: R96, puzzle: Exclusion NG 1) | – | – | – | 652 | 303 | 369 |
| UGUAGAUCUACGCUUGCGUGGAUCUGCUUAGCAAGUGAUACAUGAGGAUCACCCAUGUCCUCAUUUGCUCGUCUUAU [JL turnoff v2 99.01] (puzzle: Sensor v3, turn-off variant 2) | 15.7 | 212 | 14 | – | – | – |
| UGUCAGAUGGUAGGAUAUCCAUAUCGAGUGACCCUUUCAUAACAUGAGGAUCACCCAUGUCGGUGGGAGAAGGGCUGUAUGGUG [salish99_ExNG02_R04_025] (Eterna round: R96, puzzle: Exclusion NG 2) | – | – | – | 26.8 | 19.1 | 24.6 |
| UGUCAGAUGGUAGGAUAUCCAUAUCGAGUGACCCUUUCCUAACAUGAGGAUCACCCAUGUCGGUGGGAGAAGGGCCGUAUGGUG [salish99_ExNG02_R04_033] (Eterna round: R96, puzzle: Exclusion NG 2) | – | – | – | 11.1 | 14.2 | 15.2 |
| UGUCAGAUGGUAGGAUAUCCAUAUCGAGUGACUCUUUCAUAACAUGAGGAUCACCCAUGUCGGUGGGAGAAGGGCCGUAUGGUG [salish99_ExNG02_R04_027] (Eterna round: R96, puzzle: Exclusion NG 2) | – | – | – | 22.9 | 14.5 | 25.2 |
| UGUCAGAUGGUAGGAUAUCCAUAUCGCGUGUCCCUUUCCUAACAUGAGGAUCACCCAUGUCGGUGGGAGAAGGGCCGUAUGGUG [salish99_ExNG02_R04_035] (Eterna round: R96, puzzle: Exclusion NG 2) | – | – | – | – | 9.49 | – |
| UGUCUUCAUAUCACAUGAGGAUCACCCAUGUUAUUCAUCUCGUAGGAUAUCGAGGUUUUUUAUUUCGAGAAGGACGUAUUGUUU [JR_ExcNG3_Sub077] (Eterna round: R96, puzzle: Exclusion NG 3) | – | – | – | 215 | 135 | 153 |
| UGUGCGUAUGUGAGGAUAUGCUGGUCCUUGGAUCGGCAGAAGGCACAUGAGGAUCACCCAUGUGGUGUCGUUCA [salish99_Bmod_ex4_098] (puzzle: Brourd's mod of Exclusion 4) | – | 208 | – | – | – | – |
| UGUGCGUAUGUGAGGAUAUGCUGGUCCUUGGCUCGGCAGAAGGCACAUGAGGAUCACCCAUGUGGUGUCGUACU [salish99_Bmod_ex4_067] (puzzle: Brourd's mod of Exclusion 4) | – | 75.6 | – | – | – | – |
| UGUGUAACGGAGGAUAUAGGACUUCAACGAAGACUAGAAGGCCGAACAUGAGGAUCACCCAUGUGGUCCUCCGU [Dicesoqu] (puzzle: Exclusion 6) | – | 13.2 | – | – | – | – |
| UGUGUACGAGGAUAUAGAUGGAAUGACAUGAGGAUCACCCAUGUGAUCGAUCUAUUGGGUUUAGAAGGUGUAUAUA [JR_Ex5_Sub047] (Eterna round: R97, puzzle: Exclusion 5) | – | – | – | 27.7 | – | 34.4 |

| Sequence | apparent KD of MS2 coat protein [1] [nM] | apparent KD of MS2 coat protein [2] [nM] | apparent KD of MS2 coat protein [3] [nM] | apparent KD of MS2 coat protein (input ligand: FMN 200 uM) [nM] | apparent KD of MS2 coat protein [4] [nM] | apparent KD of MS2 coat protein (input ligand: none) [nM] |
| --- | --- | --- | --- | --- | --- | --- |
| UGUGUGAGACAGGAUAUGCUGGAUGAAAGGCAGGUAGAAGGGUCUACAUGAGGAUCACCCAUGUGGCCGGUUGG [Ex6 #73] (Eterna round: R97, puzzle: Exclusion 6) | – | – | – | 20.6 | – | 20.4 |
| UGUGUGAGACAGGAUAUGCUGGAUGUGAGGCGGGUAGAAGGGUCUACAUGAGGAUCACCCAUGUGGCCGGUUGG [Ex6 #70] (Eterna round: R97, puzzle: Exclusion 6) | – | – | – | 19.4 | – | 17.3 |
| UGUGUGUGAGGAUAUACAAUGGGCCCGGGAAACCGGGCCCUACAUGAGGAUCACCCAUGUAGAAGGCGCGCGCG [-39.6, -37.5 kcal A 24%, 0,6bis] (Eterna round: R97, puzzle: Exclusion 2) | – | – | – | 47.2 | – | 73.6 |
| UGUGUGUGAGGAUAUACAAUUGUGUGUGGAAACGCGCGCGUACAUGAGGAUCACCCAUGUAGAAGGCGCGCGCG [-30.7, -27.4 kcal A 24%, 6bis,6bis] (Eterna round: R97, puzzle: Exclusion 2) | – | – | – | 18.4 | – | 17.9 |
| UGUUAUAGAGGAUAUGCGUGAAAAUAGAUUCAUGGAAAUUUACAUGAGGAUCACCCAUGUAGAAGGCUGUGAUU [LRO-Excl2-15-mod 090 by JR] (Eterna round: R97, puzzle: Exclusion 2) | – | – | – | 14.8 | – | 14.7 |
| UGUUAUAGAGGAUAUGCGUGAAUAUAGAUUCAUGGAAAUUUACAUGAGGAUCACCCAUGUAGAAGGCUGUGUUU [LRO-Excl2-17-mod 090 by JR] (Eterna round: R97, puzzle: Exclusion 2) | – | – | – | 14.6 | – | 15.6 |
| UGUUCGUCAGGAUAUUCUACUUAUUACAUGAGGAUCACCCAUGUGUAUGUACAAGGGUGUGAAGAAGGGACUUGUU [LRO-Excl5-08-mod A17d by Omei] (Eterna round: R97, puzzle: Exclusion 5) | – | – | – | 245 | – | 885 |
| UGUUGGCGAGGAUAUACAUGAGGAUCACCCAUGUGAGAGAAAAAAGUGAGGAAGAAAAGUAGAAGGCGCUGACU [salish99_ex3_r3_044] (puzzle: Exclusion 3) | 254 | 44 | 51.8 | – | – | – |
| UGUUGUCACGCAGGAUAUGUAUGAGGAUCACCCAUUAAUAAAUUUUAACCACGAGGAUCACCCGUGUAGAAGGGCGGGACAACA [pwkr exNG2 2xF5 1xFMN.14] (Eterna round: R96, puzzle: Exclusion NG 2) | – | – | – | 30.6 | 20.1 | 29.9 |
| UGUUGUCGCGCAGGAUAUGAGGAUCACCCAUAGAAGGAUAUCGAAAGAGAAGGUCUGAGGAUUACCCAGAAGGGCGGGACAACU [pwkr exNG2 2xF5 2xFMN.13] (Eterna round: R96, puzzle: Exclusion NG 2) | – | – | – | 807 | 133 | 137 |
| UGUUGUCGCGCAGGAUAUGAGGAUCACCCAUAUAAGGAUAUCGAAAGAGAAGUUCUGAGGAUCACCCAGAAGGGCGGGACAACU [pwkr exNG2 2xF5 2xFMN.32] (Eterna round: R96, puzzle: Exclusion NG 2) | – | – | – | 389 | 52.6 | 58.5 |
| UGUUGUCGCGCAGGAUAUGAGGAUCACCCAUAUAGAGGAUAUGAAAAGAAGGUUCUGAGGAUCACCCAGAAGGGCGGGACAACU [pwkr exNG2 2xF5 2xFMN.19] (Eterna round: R96, puzzle: Exclusion NG 2) | – | – | – | 384 | 48.7 | 67.4 |
| UGUUGUCGCGCAGGAUAUGAGGAUCACCCAUAUCAGGAUAUCGAAAGAGAAGUUCUGAGGAUCACCCAGAAGGGCGGGACAACU [pwkr exNG2 2xF5 2xFMN.33] (Eterna round: R96, puzzle: Exclusion NG 2) | – | – | – | 342 | 38 | 47.8 |
| UGUUGUCGCGCAGGAUAUGCAUGAGGAUCACCCAUGCAACCACAUUUAACAUGAGGAUCACCCAUGUAGAAGGGCGGGACAACU [pwkr exNG2 2xF5 1xFMN.3] (Eterna round: R96, puzzle: Exclusion NG 2) | – | – | – | 89 | 25 | 31.4 |
| UGUUGUCGCGCAGGAUAUUGUCAACAGGCAAUAGGAUAUCCGAAAGGAGAAGGAUCGCCAACAGGCGAGAAGGGCGGGACAACU [pwkr exNG2 2xF7 2xFMN.4] (Eterna round: R96, puzzle: Exclusion NG 2) | – | – | – | 35.4 | 478 | 1200 |
| UGUUGUUACGUAGGAUAUUGUCAACAGGCAAUAGGAUAUGCGAAAGCAGAAGGAUCGCCAACAGGCGAGAAGGACGGGUUAACA [pwkr exNG2 2xF7 2xFMN.2] (Eterna round: R96, puzzle: Exclusion NG 2) | – | – | – | 849 | 771 | 134 |
